Measurements: patent US20260242478A1 (published 2026)
Where no end group is shown, it is not given here.

B1: Phage-2433 (peptide)
peptide: GDNWCKPAWMCRDM
notes: Peptide-180 library clone, tested as clonal phage (peptide fused to pIII)
B2: Phage-2434 (peptide)
peptide: EERWCIPEWMCSRI
notes: as for B1
B3: Phage-2354 (peptide)
peptide: NDHWCIPPWMCAPY
modifications: cysteine pairing not given here; also: displayed on bacteriophage by fusion to pIII
notes: Peptide-180 library clone, tested as clonal phage supernatant (peptide fused to the pIII filament of the bacteriophage)
B4: Phage-2421 (peptide)
peptide: EFKWCIPKWMCMVD
notes: as for B1
B5: Phage-2358 (peptide)
peptide: PVKWCVPPWMCAAT
modifications: cysteine pairing not given here; also: displayed on bacteriophage by fusion to pIII
notes: as for B3
B6: Phage-2346 (peptide)
peptide: WDRLCIPPWMCDVM
notes: as for B3
B7: Phage-2424 (peptide)
peptide: LVNWCTPPWMCWHD
notes: as for B1
B8: Phage-2431 (peptide)
peptide: VLKWCTPPWMCWDI
notes: as for B1
B9: Phage-2349 (peptide)
peptide: LSNWCVPLWMCEMV
notes: as for B3
B10: Phage-2355 (peptide)
peptide: FENWCTPSWMCSGF
notes: as for B3
B11: Phage-2430 (peptide)
peptide: EIKWCTPPWMCTIG
notes: as for B1
B12: Phage-2352 (peptide)
peptide: IDHWCTPAWMCRGF
notes: as for B3
B13: Phage-2350 (peptide)
peptide: MDRWCIPEWMCARH
modifications: cysteine pairing not given here; also: displayed on bacteriophage by fusion to pIII
notes: as for B3
B14: Phage-2432 (peptide)
peptide: EVKWCIPNWMCAAS
modifications: cysteine pairing not given here; also: displayed as fusion to phage pIII
notes: as for B1
B15: Phage-2429 (peptide)
peptide: GEKWCIPEWMCVTT
notes: as for B1
B16: Phage-2425 (peptide)
peptide: DENWCKPLWMCEGF
notes: as for B1
B17: Phage-2353 (peptide)
peptide: SEEWCIPPWMCLGR
notes: as for B3
B18: Phage-2344 (peptide)
peptide: LMNWCTPAWMCTGF
notes: as for B3
B19: Phage-2423 (peptide)
peptide: LTNWCTPQWMCLGF
notes: as for B1
B20: Phage-2348 (peptide)
peptide: MEKWCTPSWMCQWM
notes: as for B3
B21: Phage-2351 (peptide)
peptide: PMKWCIPEWMCIAS
notes: as for B3
B22: Phage-2428 (peptide)
peptide: ADRLCIPPWMCEMK
notes: as for B1
B23: Phage-2427 (peptide)
peptide: EYKWCVPIWMCAYD
modifications: cysteine pairing not given here; also: displayed as fusion to phage pIII
notes: as for B1
B24: Phage-2347 (peptide)
peptide: SENWCIPNWMCSGL
notes: as for B3
B25: Phage-2422 (peptide)
peptide: WTNTCIPMWMCEGF
notes: as for B1
B26: Phage-2426 (peptide)
peptide: LWMSCIPPWMCANV
modifications: cysteine pairing not given here; also: displayed as fusion to phage pIII
notes: as for B1
B27: Phage-2357 (peptide)
peptide: AERWCIPSWMCELA
notes: as for B3
B28: Phage-2435 (peptide)
peptide: GINWCTPSWMCTGF
notes: as for B1
B29: Phage-2345 (peptide)
peptide: FDMLCNPKWMCEGF
notes: as for B3
B30: Phage-2356 (peptide)
peptide: VPKWCTPTWMCIHM
notes: as for B3

What was measured:
[1] = target: T1, PSMA Fab (biotinylated (site not stated)); assay: clonal phage ELISA; biotinylated PSMA Fab on neutravidin plate pre-incubated with PSMA antigen as competitor; anti-M13 HRP detection;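 note: crude clonal phage supernatants briefly incubated on wells preloaded with PSMA antigen in blocking buffer, or buffer only as control, bound phage detected with HRP-conjugated anti-M13 antibody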
T1 construct: Biotinylated PSMA Fab captured on neutravidin plates in the phage ELISA; also called Anti-PSMA Fab; 006 PSMA Fab

[2] = target: T1, PSMA Fab; assay: clonal phage ELISA; biotinylated PSMA Fab on neutravidin plate; anti-M13 HRP detection; blocking buffer alone
Method: (§1) Clonal phage were harvested as crude supernatants and screened via standard ELISAs. […] Prior to the addition of clonal phage. wells were incubated with blocking buffer and PSMA antigen or blocking buffer alone. Without washing or aspirating, clonal phage supernatants were then added to the wells and incubated for a short time. Wells were then washed followed by detection of bound phage using a horse radish conjugated anti-M13 antibody.

[3] = target: T2, PSMA Fab; assay: phage ELISA; biotinylated PSMA Fab on neutravidin plate, clonal phage supernatant, anti-M13 HRP; wells pre-incubated with PSMA antigen as competitor
T2 construct: Biotinylated and captured on neutravidin coated plates in the phage ELISA; also called 006 PSMA Fab; Anti-PSMA Fab
Method: as §1

[4] = target: T2, PSMA Fab; assay: phage ELISA; biotinylated PSMA Fab on neutravidin plate, clonal phage supernatant, anti-M13 HRP; no PSMA antigen
Method: as §1

[5] = target: T3, PSMA Fab; assay: clonal phage ELISA on captured PSMA Fab pre-incubated with PSMA antigen (competitor: PSMA)
T3 construct: also called Anti-PSMA Fab; 006 PSMA Fab
Method: as §1

[6] = target: T3, PSMA Fab; assay: clonal phage ELISA on biotinylated PSMA Fab captured on neutravidin, anti-M13 HRP detection;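 note: crude clonal phage supernatants added to wells pretreated with PSMA antigen in blocking buffer or with blocking buffer only, then briefly incubated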
Method: as §1

Binder	Phage binding ELISA signal, Anti-PSMA Fab in presence of PSMA [1]	Phage binding ELISA signal, Anti-PSMA Fab [2]	phage binding ELISA signal [3]	phage binding ELISA signal [4]	Phage binding ELISA signal, Anti-PSMA Fab with PSMA antigen [5]	Phage binding ELISA signal, Anti-PSMA Fab [6]
EMNWCIPAWMCEGR [Phage-2437]	0.0633	1.31				
B1			0.0728	1.32		
B2			0.0557	1.32		
B3					0.0707	1.42
B4			0.0948	1.33		
YEKWCTPTWMCSWL [Phage-2446]	0.218	1.29				
B5					0.0663	1.42
B6					0.0803	1.43
B7			0.0827	1.33		
B8			0.123	1.32		
B9					0.0796	1.43
B10					0.0807	1.42
B11			0.102	1.32		
B12					0.0775	1.43
B13					0.0537	1.43
LERWCIPSWMCTED [Phage-2445]	0.0674	1.3				
B14			0.077	1.32		
MPKWCTPSWMCAVQ (cysteine pairing not given here; also: displayed as fusion to phage pIII) [Phage-2439]	0.0845	1.31				
B15			0.0637	1.32		
B16			0.0991	1.33		
B17					0.0756	1.43
EVKWCIPAWMCVED [Phage-2444]	0.0892	1.3				

Binder	Phage binding ELISA signal, Anti-PSMA Fab in presence of PSMA [1]	Phage binding ELISA signal, Anti-PSMA Fab [2]	phage binding ELISA signal [3]	phage binding ELISA signal [4]	Phage binding ELISA signal, Anti-PSMA Fab with PSMA antigen [5]	Phage binding ELISA signal, Anti-PSMA Fab [6]
B18					0.0919	1.43
VVHWCTPAWMCYDM [Phage-2441]	0.0623	1.3				
B19			0.0731	1.33		
B20					0.0828	1.43
B21					0.102	1.43
B22			0.0685	1.33		
B23			0.0826	1.33		
B24					0.0725	1.43
PAKWCVPSWMCSEI [Phage-2440]	0.0676	1.31				
MPKWCTPSWMCSPS [Phage-2436]	0.0576	1.31				
B25			0.0808	1.33		
B26			0.137	1.33		
B27					0.0756	1.42
ESKWCIPEWMCEQR [Phage-2448]	0.0688	1.29				
GAIWCIPQWMCAWN (cysteine pairing not given here; also: displayed as fusion to phage pIII) [Phage-2443]	0.132	1.3				
B28			0.0711	1.31		
EAKWCIPNWMCEMA [Phage-2438]	0.0622	1.31				
B29					0.0643	1.43
B30					0.0649	1.42
LHKLCTPTWMCEGF [Phage-2442]	0.0712	1.3				
IEKWCTPPWMCLDH [Phage-2447]	0.0663	1.29				
